# B1: HDV Ribozyme (parent)
# chain: GGCCGGCAUGGUCCCAGCCUCCUCGCUGGCGCCGGCUGGGCAACAUUCCGAGGGGACCGUCCCCUCGGUAAUGGCGAAUGGGACCCA
# Variants of: B1
# Assay: self-cleavage, relative activity (ratio to wild type); higher = more cleavage; co-transcriptional
row,Variant,self-cleavage
1,C18G G76C,0.147
2,C18A A71U,0
3,C19A C75G,0.0528
4,C19A C75U,0.058
5,G17U G28C,0.0652
6,C18U G31A,0.0702
7,C18G G50C,0
8,C19U C57G,0.089
9,C19U C57U,0.165
10,G17U C49A,0.614
11,C19A U23G,0.0923
12,C19A U23C,0.0519
13,C18U G73U,0.111
14,C18A G40A,0.0426
15,G17U C63A,0.517
16,C19U G40U,0.0839
17,C19G C26A,0.104
18,C19G C26G,0
19,C18G C19U,0.0898
20,C18A G73C,0.0396
21,C19G C84A,0.0898
22,C18A U69C,0.138
23,G17U C61U,0.471
24,C18U U27G,0.391

row,Variant,self-cleavage
1,C18U G81U,0.281
2,C18U G29C,0.196
3,C19A G28U,0.79
4,C18G G52U,0.203
5,C18A U72A,0.0504
6,C19G C57G,0.0739
7,C18G C66G,0.0665
8,C19U A43G,0.0545
9,C19G G82C,0.0594
10,C18U C57G,0.831
11,C18A G38C,0.145
12,C18A G38U,0.0652
13,C19A C21U,0.134
14,C18G G81U,0
15,G17U G50C,0.496
16,G17U C62G,0.492
17,G17U C62U,0.602
18,C18G G73C,0.104
19,C18A C64A,0.136
20,C18A C58A,0.285
21,C18U G80A,0.196
22,C18U G80C,0.102
23,C19G G28C,0.912
24,C19A C85G,0.149

row,Variant,self-cleavage
1,C19A C85A,0.0963
2,C19A G74A,0.0755
3,C19G G52U,0.145
4,C18G G53C,0.227
5,C18G G53A,0.175
6,C19U G38A,0.0875
7,C18G C61U,0.0519
8,C18U G68C,0.544
9,C18U G68U,0.635
10,C18G C62U,0.308
11,C19U C49G,0.154
12,C19A C62U,0.111
13,C19A C62G,0.104
14,C19U A87U,0.149
15,C19U G29A,0.102
16,C18G C30A,0.0739
17,C18G C30U,0.0386
18,C18U A70G,0.752
19,C18U A70U,0.658
20,C18U A70C,0.514
21,C18U U69G,0.453
22,C19U G34A,0.0468
23,G17U G40C,0.189
24,C19A U37C,0.0845

row,Variant,self-cleavage
1,C19A U47G,0.0361
2,C19A U47A,0.0554
3,C19A U47C,0.148
4,C18A C62U,0.264
5,C18G C33G,0.119
6,C18U A87G,0.733
7,C18U A87C,0.692
8,C18G G35C,0.104
9,C18G C21A,0
10,C18G G82C,0
11,C19A G76C,0.102
12,C19A G76U,0.262
13,C18A G67A,0.163
14,C18G A45G,0.0639
15,C19A G38A,0.125
16,G17U U46C,0.356
17,C19G C21U,0.122
18,C18G C41U,0.161
19,C19A U46G,0.0386
20,C19A G68A,0.0631
21,C18A C41U,0.0339
22,C18U U72A,0.175
23,C18U U72C,0.193
24,C18U U72G,0.287

row,Variant,self-cleavage
1,C18G G29C,0.939
2,C19U G25U,0.188
3,C19U G25C,0.0489
4,C18G G34A,0.136
5,C19G C85A,0.148
6,C19U C32G,0.0482
7,C19A G81A,0.0449
8,G17U C75A,0.198
9,C18G C49A,0.0791
10,C18G C49G,0.0723
11,C19A U79A,0.0773
12,G17U G38U,0.0369
13,G17U U37C,0.612
14,C18G U37C,0.256
15,C18G U37G,0.0692
16,C18A G76A,0.0678
17,C19G G54C,0.0489
18,C18G G55C,0.185
19,C18U C63G,0.607
20,C18U C63U,0.733
21,C18A G52C,0.0346
22,C18U C36U,0.198
23,C18U C36A,0.0739
24,C18U C22U,0.121

row,Variant,self-cleavage
1,G17U G52U,0.517
2,C18A U20A,0.0875
3,C18G G39C,0.0755
4,C18G A70C,0
5,C19U C30U,0.0608
6,G17U G76A,0.73
7,C19U G35U,0.0519
8,C18U C33G,0.252
9,C19A U20G,0.217
10,C18A A83G,0.0443
11,G17U C58U,0.708
12,G17U C58G,0.277
13,C18U C62U,0.831
14,C18G U65G,0.115
15,C19G C63U,0.0978
16,C19G U23C,0
17,G17U C86U,0.612
18,C19U C33A,0.0665
19,G17U C48A,0.538
20,C19G U27G,0
21,C19G U27A,0.0615
22,C19A C84A,0.0519
23,C19A C84G,0.196
24,C18A C30G,0.0573

row,Variant,self-cleavage
1,C18A C30A,0.141
2,C19G C49U,0.0326
3,C18U A51C,0.901
4,C18A G25U,0.162
5,C18A G68U,0.147
6,C19G U69G,0.102
7,C18A G82C,0.122
8,C18A G82A,0.149
9,C18U A83C,0.227
10,C18U G82A,0.194
11,C19G C66U,0.0639
12,G17U G68A,0.478
13,G17U G68C,0.542
14,C19U C21A,0.0573
15,C18A U46A,0.0923
16,C19A C30A,0.0357
17,G17U G67A,0.564
18,C19A A56U,0.122
19,C18G C63A,0.145
20,C19A A43U,0.0222
21,C18A U65C,0.101
22,C18A U65A,0.0723
23,C19G A71C,0.0665
